Reference: patent US20250250357A1 (NANJING ZAIMING PHARMACEUTICAL, published 2025)
Where a chain is given by its changes, count along the chain named. Read-outs that look alike come from different tables or passages of the source.

B1: S009-F2.38.12 (antibody, human IgG1, kappa, V domains shown)
VH: QVQLQQPGTELVKPGASVKLSCKASGYTFTSYWMHWVKQRPGQGLEWIGNINPSNGGTNYNEKIKNKATLTVDKSSSTAYMQLSSLTSEDSAVYYCARWNYYGNYPFDYWGQGTTLTVSS
VL: DIVMTQSQKFMSTTVGDRVSITCKASQNVGTAVAWYQQKPGQSPKLLIYSASNRYTGVPDRFTGSGSGTDFTLTISNMQSEDLADYFCQQYSSYPLTFGAGTKLELKR
notes: Human-murine chimeric antibody, human IgG1/kappa constant regions
B2: S009-F2-56.12 (antibody, human IgG1, kappa, V domains shown)
VH: DVQLQESGPGMVKPSQSLSLTCTVTGYSITSGYDWHWIRHFPGNKLEWMGYISYSGSTNYNPSLKSRISITHDTSKNHFFLKLKSVTTEDTATYYCARGTGPDYWGQGTTLTVSS
VL: DIVMTQSQKFMSTSVGDRVSITCKASQNVRTAVAWYQQKPGQSPKALIHLPSNRHTGVPDRFTGSGSGTDFTLTISNVQSEDLADYFCLQHWNYPLTFGGGTKLEIKR
notes: as for B1
B3: S009-F1.7.14 (antibody, human IgG1, kappa)
heavy: not shown
light: QIVLTQSPAIMSASPGEKVTISCSASSSVSYMYWYQQKPGSSPKPWISRTSNLASGVPARFSGSGSGTSYSLTISSMEAEDAATYYCQQYHSYPPTLGAGTKLELKRTVAAPSVFIFPPSDEQLKSGTASVVCLLNNFYPREAKVQWKVDNALQSGNSQESVTEQDSKDSTYSLSSTLTLSKADYEKHKVYACEVTHQGLSSPVTKSFNRGEC
notes: human-murine chimeric antibody, human IgG1/kappa constant regions
B4: S009-F1.25.10 (antibody, human IgG1, kappa, V domains shown)
VH: EVQLQQSGPELVKPGASLKISCKASGYSFTDYTMNWVKQSHGKNLEWIGLFNPYNGGISYNQKFKGKATLTVDKSSNTAYMELLSLTSDDSAVYFCARDGRGGFYAMDYWGQGTSVTVSS
VL: DIQMTQTTSSLSASLGDRVTISCRASQDISIYLNWYQQKPDGPVKLLIYYTSRLHSGVPSRFSGSGSGTDFSLTISNLEQEDIATYFCQQGYTLPPWTFGGGTKLEIKR
notes: as for B3
B5: S009-F7.33.24 (antibody, human IgG1, kappa, V domains shown)
VH: QVQLQQPGTELVKPGASVKLSCKASGYTFTSYWMHWVKQRPGQGLEWIGNVNPSNGGSNYNEKFKNKATLTVDKSSSTADMQLNSLTSEDSAVYYCAPHYIGSRPGFAYWGQGTLVTVSG
VL: DIVMTQSQKFMSTSVGDRVSVTCKASQNVGTNIAWYQQKPGQSPKALIYSASYRYSGVPDRFTGSGSGTDFTLTITNVQSEDLAEYFCQQYNSYPLTFGGGTKVEIKR
notes: as for B3
B6: S009-F7.41.18 (antibody, human IgG1, kappa, V domains shown)
VH: QVQLQQPGTELVKPGASVKLSCKASDYTFTSYWMHWVKQRPGQGLEWIGSINPSNGDTYYNEKFKNKATLTVDKSSSTAYMQLSSLTSDDSAVYYCARGWYFDVWGTGTTVTVSS
VL: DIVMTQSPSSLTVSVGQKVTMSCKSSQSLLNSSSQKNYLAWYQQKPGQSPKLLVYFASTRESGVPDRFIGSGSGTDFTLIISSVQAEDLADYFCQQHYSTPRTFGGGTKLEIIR
notes: as for B3
B7: S009-F7.44.20 (antibody, human IgG1, kappa, V domains shown)
VH: EVQLQQSGPELVKPGASVKIPCKASGYTFTDYNMDWVKQSHGKSLEWIGDINPSTGGTIYNQKFNGKATLTEDKSASTVYMEFRSLTSDDTAVYYCARRRIGTGYFDVWGTGTTVTVSS
VL: QIVLTQSPALMSASPGEKVTLTCSASSSVISSYLSWYQQKPGSSPKLLIYRTSNLASGVPARFSGSGSGTSYSLTISSMEAEDAASYFCHQWSSFPYTFGGGTKLEIKR
notes: as for B3
B8: S009-F7.48.1 (antibody, human IgG1, kappa, V domains shown)
VH: QVQLQQPGTELVKPGASVKLSCKASGYTFTSYWMHWVKQRPGQGLEWIGNINPSNGGTNNNENFKSKATLTVDTSSSTAYMQLSSLTSEDSAVYYCVRNGYHGYWYFDVWGTGTTVTVSS
VL: B5 VL with I33V, K39Q, G66V, T76S, V104L
notes: as for B3
B9: S009-F7.53.2 (antibody, human IgG1, kappa, V domains shown)
VH: EVQLQQSGPELVKPGASVKIPCKTSGYTFTDYNMDWVKQSHGKSLEWIGDINPNTDGAIYNQKFQNKATLTVDKSSSTAYMELRSLTSEDTAVYYCTRRKLGRKFFDYWGQGTTLTVSS
VL: QIVLTQSPAIMSASPGEQVTMTCSASSSVGYMNWYQQKPGSSPRLLIYDTSNLASGVPVHFSGSGSGTSYSLTISRMEAAFAATYYCQQWYVYPYTFGGGTKLEIKR
notes: as for B3
B10: S009-F7.61.21 (antibody, human IgG1, kappa, V domains shown)
VH: DVQLQQSGPELVEPGASVRIPCKAAGHTFTDYNVDWVKQSHGQSLEWIGDVNPNTDGAIYNQKFEGKATLTVDTSSSTAYMELRSLTSEDTAVYFCARRRLGQGGFDSWGQGTTLTVSS
VL: B7 VL with I2V, L10I, S24G, V29L, S32K, S35Y, L48W, R51S, F95Y, L105V
notes: as for B3
B11: S009-F7.65.13 (antibody, human IgG1, kappa, V domains shown)
VH: EVQLQQSGPELVKPGTSVKILCKASGDTFTAYNMDWVKQRHGQSLEWIGDINPNTDSTIYNQKFEGKAILTVDKSSSTAYMELRSLTSEDTAVYYCARRKLGRGYFDYWGQGTTLTVSS
VL: QIVLTQSPAIMSASPGEKVTMTCSVNLSVRYIYWYQQKPGSSPRLLIHDTSNLASGVPVRFSGSGSGTSYSLTISRMEAEDAATYYCQQWSSFPYTFGGGTKLEIKR
notes: as for B3
B12: S009-F7.66.12 (antibody, human IgG1, kappa, V domains shown)
VH: QIPLQQSGPELVKPGASVRISCKASDYAFSSSWMNWVKQRPEKGLEWIGRIFVESGNTHYNDKFNGKATLTADKSSRTAYIQLSSLTSEDSAVYFCTRENIFYHGHSSWFAYWGQGTLVTVSA
VL: DIVLTQSPASLVVSLGQRATISCRAGESVDDFGISYVHWYQQKPGQPPKLLIYRAANLESGIPARFSGSGSRTDFTLTINPVETDDVAIYYCQQNNKDPFTFGSGTKLEIKR
notes: as for B3
B13: S009-F7.67.12 (antibody, human IgG1, kappa, V domains shown)
VH: QVQLQQPGTELVKPGASVRLSCRASGYSFSSYWMHWVKQRPGQGLEWLGNINPTTGDINYNEKFRNRATLAVDKSSTTAYLQLTSLTSEDSAVYFCVRHDGFLWGQGTTLTVSS
VL: DIQMTQSPASLSASVGETVTITCRASENIYSYLAWYQQKQGKSPQLLVYYAKTLAEGVSSRFSGSGSGTQFSLKINSLQPEDFGTYYCQHQFGTPRTFGGGTKLEIRR
notes: as for B3
B14: S009-F7.69.8 (antibody, human IgG1, kappa, V domains shown)
VH: EVHLQQSGPELVKPGASVRIPCKASGYTFTDYNMDWVKQSHGKSLEWIGDINPDNGGTIYTQKFKGKATLTVDKSSSTAYMELRSLTSEDTAVYYCARRLHYYGSSGLDYWGQGTTLTVSS
VL: DIQMTQSPASLSAYVGETVTITCRASGNIHNYLAWYQQKQGKSPQLLVYNAKTLADGVPSRFSGSGSGTQYSLKINSLQPEDFGSYYCQHFWSTVWTFGGGTKLEIKR
notes: as for B3

Columns and labels:
[1] = target: T1, human MSLN-FL-his protein (human, UniProt Q13421 296-580); assay: ELISA, coated MSLN full-length;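 also: binding of chimeric antibodies to plate-bound antigen, read by TMB colour after acid stop, antibody incubated 2 h at 37 °C, negative control antibody run alongside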
T1 construct: also called human MSLN full-length protein; hMSLN-FL-his; not shown: His tag
T1 sequence (Q13421 other isoform, or with tags, fused parts or gaps): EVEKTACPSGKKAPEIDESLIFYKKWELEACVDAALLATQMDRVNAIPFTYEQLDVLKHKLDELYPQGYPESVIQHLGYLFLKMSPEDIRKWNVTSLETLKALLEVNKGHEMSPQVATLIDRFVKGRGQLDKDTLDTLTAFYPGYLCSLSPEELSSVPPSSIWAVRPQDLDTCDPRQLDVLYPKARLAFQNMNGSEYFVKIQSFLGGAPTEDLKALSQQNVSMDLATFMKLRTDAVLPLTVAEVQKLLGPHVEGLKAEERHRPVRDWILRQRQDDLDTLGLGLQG

[2] = target: T2, human MSLN-FL-his protein (human, UniProt Q13421 296-580); assay: SPR (Biacore), antibody captured on Protein A chip
T2 construct: made in HEK293E cells, purified on nickel column; also called hMSLN-FL-his; human MSLN full-length protein; not shown: His tag
T2 sequence (Q13421 other isoform, or with tags, fused parts or gaps): as above

[3] = target: T2, human MSLN-FL-his protein; assay: SPR (Biacore), antibody captured on Protein A chip; remark: listed apart in the source
Procedure: The flow cell was set at 25° C. The sample block was set at 16° C. Both were pretreated with the running buffer. In each cycle, first, the antibody to be tested was captured using the Protein A chip, and then a single concentration of human MSLN-FL-his protein was injected. […] The association was determined by injecting different concentrations of human MSLN-FL-his in solution for 240 s on end, wherein the flow rate was 30 μL/min, and the protein was diluted in a 1:1 dilution ratio from 200 nM (see detailed results for actual concentrations tested) to obtain 5 concentrations in total. The dissociation phase was monitored for up to 600 s and triggered by switching from the sample solution to the running buffer. The surface was regenerated by washing with 10 mM glycine solution (pH 1.5) at a flow rate of 30 μL/min for 30 s. The difference in bulk refractive index was corrected by subtracting the responses obtained from the goat anti-human Fc surface. Blank injections were also subtracted (=double reference). To calculate the apparent KD and other kinetic parameters, the Langmuir 1:1 model was used.

Binder	Kd [3]	koff [3]	kon [3]	further results
B1	–	–	–	OD450 at 0.0001 nM [1]: 0.06 OD450; OD450 at 0.001 nM [1]: 0.09 OD450; OD450 at 0.01 nM [1]: 0.46 OD450; OD450 at 0.1 nM [1]: 1.85 OD450; OD450 at 1 nM [1]: 2.56 OD450; OD450 at 10 nM [1]: 2.43 OD450; OD450 at 100 nM [1]: 2.57 OD450; OD450 at none (no antibody) [1]: 0.06 OD450
B2	–	–	–	OD450 at 0.0001 nM [1]: 0.06 OD450; OD450 at 0.001 nM [1]: 0.07 OD450; OD450 at 0.01 nM [1]: 0.16 OD450; OD450 at 0.1 nM [1]: 0.37 OD450; OD450 at 1 nM [1]: 0.41 OD450; OD450 at 10 nM [1]: 0.37 OD450; OD450 at 100 nM [1]: 0.4 OD450; OD450 at none (no antibody) [1]: 0.07 OD450
B3	–	–	–	Kd [2]: 12.8 nM; koff [2]: 0.00709 s⁻¹; kon [2]: 553000 M⁻¹ s⁻¹
B4	–	–	–	Kd [2]: 186 nM; koff [2]: 0.00067 s⁻¹; kon [2]: 3600 M⁻¹ s⁻¹
B5	10.2 nM	0.00506 s⁻¹	498000 M⁻¹ s⁻¹	–
B6	0.418 nM	8.35e-05 s⁻¹	200000 M⁻¹ s⁻¹	–
B7	3.01 nM	0.00106 s⁻¹	351000 M⁻¹ s⁻¹	–
B8	17.8 nM	0.000413 s⁻¹	23100 M⁻¹ s⁻¹	–
B9	3.27 nM	0.00065 s⁻¹	199000 M⁻¹ s⁻¹	–
B10	5.03 nM	0.00154 s⁻¹	306000 M⁻¹ s⁻¹	–
B11	1.44 nM	0.000538 s⁻¹	374000 M⁻¹ s⁻¹	–
B12	13.1 nM	0.00236 s⁻¹	180000 M⁻¹ s⁻¹	–
B13	0.602 nM	0.00065 s⁻¹	1.08e+06 M⁻¹ s⁻¹	–
B14	6.51 nM	0.00447 s⁻¹	687000 M⁻¹ s⁻¹	–
